Results reported in the DeepSol protein solubility set.

Experiment: soluble on expression in E. coli; label from the status in PepcDB or PDB records

Sequence	soluble on expression in E. coli
MGSDKIHHHHHHMIREVKFESQDRRIKQIIAALNENGIKDIEEANAICEAAGLDPYKTCEETQPICFENAKWAYVVGSAIALKKGCKNAAEAAEAIGIGLQAFCIPGSVADDRKVGIGHGNLAAMLLREETKCFAFLAGHESFAAAEGAIKIAAKADKVRKEPLRCILNGLGKDAAQIISRINGFTYVQTEFDYFTGELKVVREIAYSDGPRAKVKCYGADDVREGVAIMWKEGVDVSITGNSTNPTRFQHPVAGTYKKERVLAGKPYFSVASGGGTGRTLHPDNMAAGPASYGMTDTMGRMHSDAQFAGSSSVPAHVEMMGFLGIGNNPMVGCTVACAVDVATALSK	not soluble
MASIAYGNNNYVIVKRDGKILTSSDGHEWKEKYFLQGGSFTSVTYNGNMFVAAGAYTVALPYGGPLTYGKCVIMTSPDGNNWQLQDAGYNADLKGITWSGKKFAVAGTNIILSSENGITWNAVEVNAILHDIAFGNGIFAAVGYDGVIMSSVDGEHWETKVEALRYDLTNIVWYDNKFIAIGSGSTPSIVVSGDGKTRVARGPKDASYKCDSSLHNVEWRKTGCSRLRQYYSDRRAKGYS	soluble
MLPDSSVRLNKYISESGICSRREADRYIEQGNVFLNGKRATIGDQVKPGDVVKVNGQLIEPREAEDLVLIALNKPVGIVSTTEDGERDNIVDFVNHSKRVFPIGRLDKDSQGLIFLTNHGDLVNKILRAGNDHEKEYLVTVDKPITEEFIRGMSAGVPILGTVTKKCKVKKEAPFVFRITLVQGLNRQIRRMCEHFGYEVKKLERTRIMNVSLSGIPLGEWRDLTDDELIDLFKLIENSSSEVKPKAKAKPKTAGIKRPVVKMEKTAEKGGRPASNGKRFTSPGRKKKGRLEHHHHHH	soluble
RPRGPRAVFILPVTAQGEAVLIRQFRYPLRATITEIVAGGVEKGEDLGAAAARELLEEVGGAASEWVPLPGFYPQPSISGVVFYPLLALGVTLGAAQLEDTETIERVVLPLAEVYRMLEAGEIQDGPSSLTLWQARGELTRRGLL	soluble
MHPRFQTAFAQLADNLQSALAPILADHHFPAMLTAEQVSTLKNTAGLDEDALAFALLPLAAACARTDLSHFNVGAIARGVSGNWYFGANMEFLGATMQQTVHAEQSAISHAWLRGEKGLAAVTVNYTPCGHCRQFMNELNSGLDLRIHLPGRAPHTLRDYLPDAFGPKDLEIKTLLMDEQDHGFTLTGDTLTQAAITAANKSHMPYSHSPSGVALECKDGRIFTGSYAENAAFNPTLPPLQGALNLLSLNGYDYADIQRAILAEKGDAALIQWDATAATLKALGCHNIDRVLLG	not soluble
MNKVVLLCRPGFEKECAAEITDKAGQREIFGFARVKENAGYVIYECYQPDDGDKLIRELPFSSLIFARQWFVVGELLQHLPPEDRITPIVGMLQGVVEKGGELRVEVADTNESKELLKFCRKFTVPLRAALRDAGVLANYETPKRPVVHVFFIAPGCCYTGYSYSNNNSPFYMGIPRLKFPAEAPSRSTLKLEEAFHVFIPADEWDERLANGMWAVDLGACPGGWTYQLVKRNMWVYSVDNGPMAQSLMDTGQVTWLREDGFKFRPTRSNISWMVCDMVEKPAKVAALMAQWLVNGWCRETIFNLKLPMKKRYEEVSHNLAYIQAQLDEHGINAQIQARQLYHDREEVTVHVRRIWAAVGGRRDER	not soluble
MAPVQGSYDYDLIVIGGGSAGLACAKEAVLNGARVACLDFVKPTPTLGTKWGVGGTCVNVGCIPKKLMHQASLLGEAVHEAAAYGWNVDDKIKPDWHKLVQSVQNHIKSVNWVTRVDLRDKKVEYINGLGSFVDSHTLLAKLKSGERTITAQTFVIAVGGRPRYPDIPGAVEYGITSDDLFSLDREPGKTLVVGAGYIGLECAGFLKGLGYEPTVMVRSIVLRGFDQQMAELVAASMEERGIPFLRKTVPLSVEKQDDGKLLVKYKNVETGEESEDVYDTVLWAIGRKGLVDDLNLPNAGVTVQKDKIPVDSQEATNVANIYAVGDIIYGKPELTPVAVLAGRLLARRLYGGSTQRMDYKDVATTVFTPLEYACVGLSEEDAVKQFGADEIEVFHGYYKPTEFFIPQKSVRYCYLKAVAERHGDQRVYGLHYIGPVAGEVIQGFAAALKSGLTINTLINTVGIHPTTAEEFTRLAITKRSGLDPTPAS	soluble
MSLRIGVAGVGKLGEFHTNLLKQIAAEASDVEFSGVFDLNPERLQEIGKKYGVACFSTLEELAASCDAAVIATTTSSHYAIARQLLEARLHLFIEKPITATLEEADKLIRIEQEKGLTIQVGHIERFNPALLAVEPYIGEPMYIQAERLSGFSRRVTDVSVVLDLMIHDIDLVLSLIKSDIRSIAASGVKVFSNELDMATARIEFENGAIANVTASRLSRSKLRKMRFFTRNPKSYASLDFTSGKSEVFRLVPPDQLSSKNPIKNFATKKILEQFGEIQESLKEMALDYVSPDVPKINALKEELEQFIDAIRKGKPAKVTSEEGRRALMVAGKITDEIRNNTADLDEGHHHHHH	soluble
MGSDKIHHHHHHMEAEIELKLFFPENKREALVSLLNSLPHSDAKGAIHLTNSYYDTPDLQLRRWDMGLRIRGRDGQFEQTIKTAGTVVGGVHSRPEYNIDIDQAKVNLSLFPTEIWPEGAEIGPVQDALVSLFDTDFTRMSWHIYLDESLVEVALDIGSISANGQCEPICELEFELLAGDAQALLALAERVTEQIPARLGRASKAQRGYRLAAMASPLQLDTLAFIALPKKGTPKQALVTLLETGLDRWQLLEEMLLESRQAARQLPLLGYRLRACIRLLRCTLAQFSLLDDKLLQAFDAIESQLSFVDKGLSLCELLDGDGALLSNLSEPEGLLDAVRHELAALEMPQKIDAMLNHVTYGQLQVRLVSLLMAVNAGQVYISEQQSLQAFADRLQEASWQQIVDLMPSNAELSSEDYQSFAKALDESILVGVAYGELYKHKSRDQFRAPWQDLVLGIRTLGAYHSLRQTAATQGRDIDDWLDSKEQSLLFAMEHSRRSALKVQPYWR	not soluble
MTIYEQHFIFSDRIVPIRVRENKYARRLILRIDARGREICVTTPPAINLYSIQGFIAKHQSWIEARLARVQIAHANSYLKEGTKIPLLGIPHTIQRKEGRGITEIVAGDVRQEPKIVVYGQLEYLPRRIADVLKKQAALIITPLVKCYARKVERKVKSICYKDTKSRWGSCSIHGNLSFSWRLVMAPQEVIEYVVAHEVAHLIEMNHGPKFWALCEKLCPKSEAYRTWLKENGHMLQAVNFHSYRLEI	not soluble
MRIPLVGKDSIESKDIGFTLIHEHLRVFSEAVRQQWPHLYNEDEEFRNAVNEVKRAMQFGVKTIVDPTVMGLGRDIRFMEKVVKATGINLVAGTGIYIYIDLPFYFLNRSIDEIADLFIHDIKEGIQGTLNKAGFVKIAADEPGITKDVEKVIRAAAIANKETKVPIITHSNAHNNTGLEQQRILTEEGVDPGKILIGHLGDTDNIDYIKKIADKGSFIGLDRYGLDLFLPVDKRNETTLRLIKDGYSDKIMISHDYCCTIDWGTAKPEYKPKLAPRWSITLIFEDTIPFLKRNGVNEEVIATIFKENPKKFFS	soluble
ASNIHRIQQIVEAAERYNRKVAVSGRSMENIVAVAIELGYLKVKEGVLIGIDAINRYADNKIVIITTGSQGEPMSALTRMAAQEHKKVKIQEGDMVVISANPIPGNEKLVSRVINQLFKKGAEVIYEALADVHVSGHACQEELKLMHTLIKPRFFIPVHGEYRHLKQHKELATNLGMPKANVVIPEIGGVIELTRSSIKKTDTVVAGKVFVDGLGVGDVGNIVLRDRKHLSQDGIVTVVVTIEKVSGTVIAGPDIISRGFVYVRESEDLMEESKEIVKTALLECEEKHITEWATIKSNIKDVLRIFLYERTKRKPMILPIIME	not soluble
MAHHHHHHMVTGDMSTTVTGLDPHKMARRASRFVSSVKASTGTASSTGRTEMERYFENFASMDSAEGLETIGPKGIQHLCEDLAIKRDSFEMYTLIWKLGITRGGCIPRSDWLNMVYNYNIEVPVELKRRLREWVKDARGPSFVEFYSELYDYIRGDSARMMLPETAARAWDVLFRGDQQVAQWIRWYTGFYDCEVTRDIWRHVALFFNTGENATPYRKEDAWPTAFDLFAEWRETCETP	not soluble
MLNHIVMWKIKEDVEDKEKVKLGIKNGLEGLFGKIEELREIRVERFMESTSTHDVALFVKVDNEDTLKKYATNPLHVEIIKNYIKPFVYDRVCIDFFELEHHHHHH	not soluble
MKIISAEQVHQNLNFEELIPLLKQSFSRPFSMPQRQVYSLAPEQSENHDAFALLPSWNEEVIGNKAFTYFPDNAKKHDLPGLFSKIMLFKRQTGEPLALVDGTSVTYWRTAAISALASQLLSRKNSQHLMLFGTGNLASYLVKAHLTVRDIKQVTLWGRNAKKVSKLIADFSILYPAVTFKTSVDVNAEVASADIICCATGAKTPLFDGNSVSAGCHIDCLGNHMTDARECDTTTILRARVFVDSLTNTLNEAGELLIPMAEDAFNKDEIVGELADMCKTPSMLRQSSDEITLFKSVGTAISDLVAAHSVVEKLAD	not soluble
MSSFSESALEKKLSELSNSQHSVQTLSLWLIHHRKHAGPIVSVWHRELRKAKSNRKLTFLYLANDVIQNSKRKGPEFTREFESVLVDAFSHVAREADEGCKKPLERLLNIWQERSVYGGEFIQQLKLSMEDSKSPPPKATEEKKSLKRTFQQIQEEEDDDYPGSYSPQDPSAGPLLTEELIKALQDLENAASGDATVRQKIASLPQEVQDVSLLEKITDKEAAERLSKTVDEACLLLAEYNGRLAAELEDRRQLARMLVEYTQNQKDVLSEKEKKLEEYKQKLARVTQVRKELKSHIQSLPDLSLLPNVTGGLAPLPSAGDLFSTD	soluble
MRIIKFPEQISEDIIHYTFLDDIISYNCEKCRGSCCHVNNSLLLDAKTASFLKRTYLKDFIVSDDSVSLLSCGKKCWFHSELGCTINDLGLNKPLTCELYPFHIKKIQNFYIVSFTPCPTFQLNLGEGQRYKDIEDVVLRYIKTGVPVFSPSLHVSEERLKYEIEYQNNFKNTLSEYYRTKTADGTTEFKEYEKWYIYYLDFRWGSIPLSYTSSQANQFWNLYKRVCEDVYKKISYIRTDNIYFIIANQFNKTISKHFQLNFIDKE	soluble
MFEKQEVEQKKELKILEIIKEAIELGASDIHLTAGAPPAVRIDGYIKFLKDFPRLTPEDTQKLAYSVMSEKHRQKLEENGQVDFSFGVRGVGRFRANVFYQRGSVAAALRSLPAEIPEFKKLGLPDKVLELCHRKMGLILVTGPTGSGKSTTIASMIDYINQTKSYHIITIEDPIEYVFKHKKSIVNQREVGEDTKSFADALRAALREDPDVIFVGEMRDLETVETALRAAETGHLVFGTLHTNTAIDTIHRIVDIFPLNQQEQVRIVLSFILQGIISQRLLPKIGGGRVLAYELLIPNTAIRNLIRENKLQQVYSLMQSGQAETGMQTMNQTLYKLYKQGLITLEDAMEASPDPKELERMIRGGRHHHHHH	soluble
MGSDKIHHHHHHMVEFQSRIGKDGRLTVMEIPFDARETFQMPKGTIFVCGTINGIPYRGKLLSRGNGKQVLTIDKTLQKGLGYAGQDFPVNVAMACENQAEMVDEEKEAIPRLHSDMEAITAIAGRASVRKYMDKTVEPQKLEVILRAGLSAPSAKNKRPFHFVVVEDKAVLGAWAAGNSNAKMLSHAPCCIVVCGDGNVEGTRDFLVGGCAAATQNMLIAIHALGLGGVWCGVLRGKEWSRQVAADLYLPVKVEPLAVIALGYPTEQEKAPVPWDMKSHIHYERW	not soluble
MRQSSQARETTETKIKLNLQLDESTNVSIQTGVGFFDHMLTLFARHGRFGLQVEAEGDVFVDAHHTVEDVGIVLGNCLKEALQNKEGINRYGSAYVPMDESLGFVAIDISGRSYCVFQGELTNPKLGDFDTELTEEFFRAVAHAANITLHARVLYGSNTHHKIEALFKAFGRALREAVEKNANITGVNSTKGML	not soluble
